The target in assay [1] is T1, human FcRn/b2M (human, UniProt P61769 21-119, biotinylated).
T1 construct: bought recombinant biotinylated protein (ACRO FCM-H82W4 or Immunitrack ITF01); also called hFcRn; hFcRn/hb2M
Put plainly: SPR pH 6.0; pH 6.0; off-rate of periplasmic extract, human FcRn.
Method: (§1) All kinetic measurements have been performed on ProteOn XPR36 (BioRad Laboratories, Inc.), MASS-2 (Sierra sensors, Gmbh) or SPR-32 (Bruker Corporation). […] The phytip purified periplasmic extracts were diluted 1:10 in running buffer (CPA+150 mM NaCl+0.005% Tw20 at pH 5.5, pH 6.0 or pH 7.4) and injected over the ligand surfaces (association: 120 s at 45 μL/min; dissociation: 600s-3600 s at 45 μL/min). Experiments were carried out at 25° C.

Assay [2] deals with T2, cyno FcRn/b2M (cyno, UniProt Q8SPV9 24-297; Q8SPW0 21-119, biotinylated).
T2 construct: bought recombinant biotinylated protein (Immunitrack ITF05 or ACRO FCM-C82W5); also called cFcRn; cFcRn/cb2M
Put plainly: SPR pH 6.0; pH 6.0; off-rate of periplasmic extract, cyno FcRn.
Method: as §1

Assay [3] has as its target T3, mouse serum albumin (mouse, UniProt P07724 25-608).
T3 construct: also called MSA
Put plainly: SPR pH 7.4.
Method: (§2) The affinity of the purified, multivalent ISVD constructs for human and mouse serum albumin (HSA and MSA, respectively) was determined on the ProteOn XPR36 (BioRad Laboratories, Inc.) instrument. […] The ISVD constructs were injected at 6 different concentrations (between 1 and 500 nM) and allowed to associate for 120 s at 45 μL/min and dissociate for 600s-3600s at 45 μL/min. Evaluation of the sensorgrams was based on the 1:1 Langmuir dissociation model simultaneously fitting on and off-rates.

Assay [4] concerns the target T4, human serum albumin (human, UniProt P02768 25-609).
T4 construct: also called HSA
Put plainly: SPR pH 7.4.
Method: as §2

Assay [5] deals with T3, mouse serum albumin. Put plainly: SPR pH 6.0.
Method: as §2
Assay [6] has as its target T4, human serum albumin. Put plainly: SPR pH 6.0.
Method: as §2
For assay [7], the target named is T1, human FcRn/b2M. The assay is described as follows: SPR pH 6.0; pH 6.0; human FcRn.
Method: (§3) The affinity of the purified, multivalent ISVD constructs for human and cyno FcRn was determined on the MASS-2 (Sierra sensors, Gmbh) instrument, hFcRn/hb2M and cFcRn/cb2M was captured on a Biotin-tag Capture Chip or a High Capacity Amine Chip (pre-immobilized with neutravidin). The ISVD constructs were injected at 6 different concentrations (between 1 and 4000 nM) and allowed to associate for 120 s at 45 μL/min and dissociate for 600 s-3600 s at 45 μL/min. […] Evaluation of the sensorgrams was based on the 1:1 Langmuir dissociation model simultaneously fitting on and off-rates.
In assay [8] the target is T2, cyno FcRn/b2M. The assay is described as follows: SPR pH 6.0; pH 6.0; cyno FcRn.
Method: as §3

T1 sequence (chain, as listed by the source limits assumed, chain 1 of 2): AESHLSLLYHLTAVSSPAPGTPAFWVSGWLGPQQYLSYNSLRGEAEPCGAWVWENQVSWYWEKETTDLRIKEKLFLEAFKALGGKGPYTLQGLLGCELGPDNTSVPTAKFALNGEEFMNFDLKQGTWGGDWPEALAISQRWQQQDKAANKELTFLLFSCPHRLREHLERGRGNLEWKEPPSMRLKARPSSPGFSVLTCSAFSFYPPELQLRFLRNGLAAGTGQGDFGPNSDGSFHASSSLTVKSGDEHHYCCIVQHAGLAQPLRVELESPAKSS
T1 sequence (P61769 21-119 limits assumed, chain 2 of 2): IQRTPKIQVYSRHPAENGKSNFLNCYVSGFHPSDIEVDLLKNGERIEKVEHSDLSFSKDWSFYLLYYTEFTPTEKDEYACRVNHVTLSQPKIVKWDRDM
T3 sequence (P07724 25-608 limits assumed): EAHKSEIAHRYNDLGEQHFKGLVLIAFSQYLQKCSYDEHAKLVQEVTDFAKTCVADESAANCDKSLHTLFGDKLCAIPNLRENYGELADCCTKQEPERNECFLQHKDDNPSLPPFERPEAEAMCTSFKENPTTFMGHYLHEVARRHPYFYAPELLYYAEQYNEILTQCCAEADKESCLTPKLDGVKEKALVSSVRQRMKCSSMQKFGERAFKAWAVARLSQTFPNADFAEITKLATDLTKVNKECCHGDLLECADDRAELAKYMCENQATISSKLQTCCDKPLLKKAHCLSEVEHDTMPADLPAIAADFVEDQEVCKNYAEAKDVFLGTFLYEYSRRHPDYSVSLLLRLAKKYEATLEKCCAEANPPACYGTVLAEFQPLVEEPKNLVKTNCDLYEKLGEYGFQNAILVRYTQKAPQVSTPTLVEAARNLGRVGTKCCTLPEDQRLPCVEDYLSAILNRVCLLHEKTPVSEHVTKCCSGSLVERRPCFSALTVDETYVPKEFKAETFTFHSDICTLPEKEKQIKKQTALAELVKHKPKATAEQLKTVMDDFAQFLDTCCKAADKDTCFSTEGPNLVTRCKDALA
T2 sequence (Q8SPV9 24-297 limits assumed, chain 1 of 2): as the sequence (chain, as listed by the source limits assumed, chain 1 of 2) above, with N39D, E44Q, G99S, S189G, S190N, L217M, S269T counted along it
T2 sequence (Q8SPW0 21-119 limits assumed, chain 2 of 2): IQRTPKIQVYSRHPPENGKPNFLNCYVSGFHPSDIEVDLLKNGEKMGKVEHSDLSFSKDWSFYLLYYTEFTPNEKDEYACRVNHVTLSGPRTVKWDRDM

B1: T0263018B11 T96E (VHH, name in Kabat numbering)
VHH: EVQLVESGGGVVQPGGSLRLSCAASGFTFSSYAMYWVRQAPGKGLEWVSAISSGGGSTDYADSVKGRFTISRDNSKNTLYLQMNSLRPEDTALYYCAADELYTSLTWYSYWGQGTLVTVSS
notes: FLAG3-His6 tagged
With B1, the off-rate (koff) in assay [1] is 0.012 s⁻¹; in assay [2] it was 0.0093 s⁻¹.

B2: T026301195 (bispecific antibody, name in Kabat numbering)
chain: DVQLVESGGGVVQPGGSLRLSCAASGFTFSEYDMYWVRQAPGKGLEWVSAISSGGGSTDYADSVKGRFTISRDNSKNTLYLQMNSLRPEDTALYYCAADTLYTSLTSYSYWGQGTLVTVSSGGGGSGGGGSGGGGSGGGGSGGGGSGGGGSGGGGSEVQLVESGGGVVQPGGSLRLSCAASGFTFRSFGMSWVRQAPGKGPEWVSSISGSGSDTLYADSVKGRFTISRDNSKNTLYLQMNSLRPEDTALYYCTIGGSLSRSSQGTLVTVSSA
notes: bispecific ISVD construct; also called T0263018B11(E1D, S31E, A33D, W100cS)-35GS-ALB23002-A
Take B2: the Kd in assay [3] was 120 nM; in assay [4] it was 13 nM; in assay [5] it was 77 nM; in assay [6], 6.1 nM; in assay [7], 680 nM; in assay [8], 670 nM.

For orientation: koff means the first-order rate constant of dissociation. Lower therefore signals slow dissociation. As a reminder, the Kd is a measure of binding affinity in units of concentration. A low value points to tighter binding.

Values taken from patent US20240132624A1 (Ablynx, published 2024).
